The binders below were run against HLA-B*07 (human) (assay: UV peptide exchange ELISA; +++ = yield >50).

Row | Binder | peptide exchange yield
1 | RPLPNSVIHV | 50 to 75%
2 | APFHIDRLF | 50 to 75%
3 | APRGSPPI | 50 to 75%
4 | LPRALMRST | 50 to 75%
5 | YPSPLNKHSF | 50 to 75%
6 | KTKSLAQQL | 50 to 75%
7 | NPERHKPSF | 50 to 75%
8 | VPGSDPARYEFL | 50 to 75%
9 | TVRPKNAAL | 50 to 75%
10 | GPFQRAAL | 50 to 75%
11 | RPRLRDLPAL | 50 to 75%
12 | MPFRNIRSIL | 50 to 75%
13 | VAAAARLTL | 50 to 75%
14 | MPRLLRLSL | 50 to 75%
15 | LVILQHQAM | 50 to 75%
16 | YPMIPPAQL | 50 to 75%
17 | GPKKFIVKL | 50 to 75%
18 | RPVQGIPTY | 50 to 75%
19 | VPAQRLGLLL | 50 to 75%
20 | HVAQPAVVL | 50 to 75%
21 | SPSSVFTSK | 50 to 75%
22 | APLHGGGSL | 50 to 75%
23 | SSASFSSELFRH | 50 to 75%

Row | Binder | peptide exchange yield
24 | RPPPSRRAVL | 50 to 75%
25 | GSRPVTGSV | 50 to 75%
26 | IPIRVDQNGAF | 50 to 75%
27 | LPLGGHKSL | 50 to 75%
28 | SAQSLHPVL | 50 to 75%
29 | VWEPQGSSRSL | 50 to 75%
30 | VPYYPRANL | 50 to 75%
31 | RPSQLAPATL | 50 to 75%
32 | LPVSPARAL | 50 to 75%
33 | RPLPVSPARAL | 50 to 75%
34 | VPRRPARAL | 50 to 75%
35 | RLAHVRARL | 50 to 75%
36 | MPKTNLSKM | 50 to 75%
37 | HPNKIKASL | 50 to 75%
38 | NPIFGRKEL | 50 to 75%
39 | RPSGTAGAAL | 50 to 75%
40 | LPSPAHAFRAL | 50 to 75%
41 | SPSREASAL | 50 to 75%
42 | FPYSGDKILV | 50 to 75%
43 | TPRIGPKVSL | 50 to 75%
44 | VPSDITTAF | 50 to 75%
45 | RNRQVATAL | 50 to 75%

Each binder was assayed against HLA-B*07 (human) (assay: UV peptide exchange ELISA; ++++ = yield >75%).

Row | Binder | peptide exchange yield
46 | IPWFIKTAF | > 75%
47 | WPNHIMLVL | > 75%
48 | APRGPAQGEAA | > 75%
49 | SPSYTQASL | > 75%
50 | RPQPQPRPAL | > 75%
51 | QPVLPSPAC | > 75%
52 | APMAPGRSPL | > 75%
53 | RPSFPNLTSF | > 75%
54 | FPRTVKHIDAAL | > 75%
55 | MPAGGGPRSL | > 75%
56 | APLKMLAL | > 75%
57 | APTPRPKVL | > 75%
58 | SPSQTVQRAV | > 75%
59 | RPRQTGALM | > 75%
60 | SPVFYVQTL | > 75%
61 | SPRIPFSTF | > 75%
62 | LPALLRSGLTL | > 75%
63 | KPRTIYSSL | > 75%
64 | RPYSIYPHGVTF | > 75%
65 | FPNVYSTLVL | > 75%
66 | LPMTVISVL | > 75%
67 | VPVSRPVL | > 75%
68 | VPAQRLGLL | > 75%
69 | LPVSSPVTL | > 75%
70 | VPVSHPVL | > 75%
71 | KPKVESQAL | > 75%
72 | QPRLVPGETL | > 75%
73 | FPRLVGPDFF | > 75%
74 | SVAIAHGVF | > 75%
